Experimental findings from patent publication US20230056252A1 (Gilead, published 2023) are described below.

The chains are these.
B1: huSP34.8.5 Fab-HF (Fab, V domains shown)
VH: EVQLVESGGGLVQPGGSLRLSCAASGFTFSDYAMNWVRQAPGKGLEWVGRTRSKYNNYATYYAASVKGRFTISRDDSKNSLYLQMNSLKTEDTAVYYCVRHGNFGHSYVSWFAVWGQGTLVTVSS
VL: QAVVTQEPSLTVSPGGTVTLTCGSSTGAVTTGHYANWVQQKPGQAPRGLIGGTSNRAPWTPARFSGSLLGGKAALTLSGAQPEDEAEYYCALWYSARWVFGGGTKLTVL
notes: also called HC8+LC5
B2: huSP34.6.6 Fab-HF (Fab, V domains shown)
VH: EVQLVESGGGLVQPGGSLRLSCAASGFTFSTYAMNWVRQAPGKGLEWVGRIRSKYNNYATYYADSVKGRFTISRDNSKNTLYLQMNSLRAEDTAMYYCVRHGNFGNSYVSWFAVWGQGTLVTVSS
VL: QAVVTQPPSLTVSPGGTVTLTCGSSTGAVTTGHYANWVQQKPGQAPRGLIGGTSNRAPGVPARFSGSLSGGKAALTISGAQPEDEAEYYCALWYSARWVFGGGTKLTVL
notes: also called HC6+LC6
B3: huSP34.5.6 Fab-HF (Fab, V domains shown)
VH: EVQLVESGGGLVQPGGSLRLSCAASGFTFSTYAMNWVRQAPGKGLEWVGRIRSKYNNYATYYADSVKGRFTISRDNSKNTLYLQMNSLRAEDTAVYYCVRHGNFGHSYVSWFAVWGQGTLVTVSS
VL: QAVVTQPPSLTVSPGGTVTLTCGSSTGAVTTGHYANWVQQKPGQAPRGLIGGTSNRAPGVPARFSGSLSGGKAALTISGAQPEDEAEYYCALWYSARWVFGGGTKLTVL
notes: also called HC5+LC6
B4: huSP34.7.6 Fab-HF (Fab, V domains shown)
VH: EVQLVESGGGLVQPGGSLRLSCAASGFTFSDYAMNWVRQAPGKGLEWVGRTRSKYNNYATYYAASVKGRFTISRDDSKNSLYLQMNSLKTEDTAVYYCVRHGNFGNSYVSWFAVWGQGTLVTVSS
VL: QAVVTQPPSLTVSPGGTVTLTCGSSTGAVTTGHYANWVQQKPGQAPRGLIGGTSNRAPGVPARFSGSLSGGKAALTISGAQPEDEAEYYCALWYSARWVFGGGTKLTVL
notes: also called HC7+LC6
B5: huSP34.10.4 Fab-HF (Fab, V domains shown)
VH: EVQLVESGGGLVQPGGSLRLSCAASGFTFSDYAMNWVRQAPGKGLEWVGRTRSKYNSYATYYAASVKGRFTISRDDSKNSLYLQMNSLKTEDTAVYYCVRHGNFGHSYVSWFAVWGQGTLVTVSS
VL: QAVVTQEPSLTVSPGGTVTLTCGSSTGAVTTSHYANWVQQKPGQAPRGLIGGTSKRAPWTPARFSGSLLGGKAALTLSGAQPEDEAEYYCALWYSALWVFGGGTKLTVL
notes: also called HC10+LC4
B6: huSP34.9.5 Fab-HF (Fab, V domains shown)
VH: EVQLVESGGGLVQPGGSLRLSCAASGFTFSDYAMNWVRQAPGKGLEWVGRTRSKYNSYATYYAASVKGRFTISRDDSKNSLYLQMNSLKTEDTAVYYCVRHGNFGNSYVSWFAVWGQGTLVTVSS
VL: QAVVTQEPSLTVSPGGTVTLTCGSSTGAVTTGHYANWVQQKPGQAPRGLIGGTSNRAPWTPARFSGSLLGGKAALTLSGAQPEDEAEYYCALWYSARWVFGGGTKLTVL
notes: also called HC9+LC5
B7: huSP34.9.1 Fab-HF (Fab, V domains shown)
VH: EVQLVESGGGLVQPGGSLRLSCAASGFTFSDYAMNWVRQAPGKGLEWVGRTRSKYNSYATYYAASVKGRFTISRDDSKNSLYLQMNSLKTEDTAVYYCVRHGNFGNSYVSWFAVWGQGTLVTVSS
VL: QAVVTQEPSLTVSPGGTVTLTCRSSTGAVTTSNYANWVQQKPGQAPRGLIGGTNKRAPWTPARFSGSLIGDKAALTLSGAQPEDEAEYYCALWYSNLWVFGGGTKLTVL
notes: also called HC9+LC1
B8: huSP34.10.2 Fab-HF (Fab, V domains shown)
VH: EVQLVESGGGLVQPGGSLRLSCAASGFTFSDYAMNWVRQAPGKGLEWVGRTRSKYNSYATYYAASVKGRFTISRDDSKNSLYLQMNSLKTEDTAVYYCVRHGNFGHSYVSWFAVWGQGTLVTVSS
VL: QAVVTQEPSLTVSPGGTVTLTCGSSTGAVTTSNYANWVQQKPGQAPRGLIGGTSNRAPWTPARFSGSLLGGKAALTLSGAQPEDEAEYYCALWYSNLWVFGGGTKLTVL
notes: also called HC10+LC2
B9: huSP34.10.1 Fab-HF (Fab, V domains shown)
VH: EVQLVESGGGLVQPGGSLRLSCAASGFTFSDYAMNWVRQAPGKGLEWVGRTRSKYNSYATYYAASVKGRFTISRDDSKNSLYLQMNSLKTEDTAVYYCVRHGNFGHSYVSWFAVWGQGTLVTVSS
VL: QAVVTQEPSLTVSPGGTVTLTCRSSTGAVTTSNYANWVQQKPGQAPRGLIGGTNKRAPWTPARFSGSLIGDKAALTLSGAQPEDEAEYYCALWYSNLWVFGGGTKLTVL
notes: also called HC10+LC1
B10: huSP34.8.6 Fab-HF (Fab, V domains shown)
VH: EVQLVESGGGLVQPGGSLRLSCAASGFTFSDYAMNWVRQAPGKGLEWVGRTRSKYNNYATYYAASVKGRFTISRDDSKNSLYLQMNSLKTEDTAVYYCVRHGNFGHSYVSWFAVWGQGTLVTVSS
VL: QAVVTQPPSLTVSPGGTVTLTCGSSTGAVTTGHYANWVQQKPGQAPRGLIGGTSNRAPGVPARFSGSLSGGKAALTISGAQPEDEAEYYCALWYSARWVFGGGTKLTVL
notes: also called HC8+LC6
B11: huSP34.9.2 Fab-HF (Fab, V domains shown)
VH: EVQLVESGGGLVQPGGSLRLSCAASGFTFSDYAMNWVRQAPGKGLEWVGRTRSKYNSYATYYAASVKGRFTISRDDSKNSLYLQMNSLKTEDTAVYYCVRHGNFGNSYVSWFAVWGQGTLVTVSS
VL: QAVVTQEPSLTVSPGGTVTLTCGSSTGAVTTSNYANWVQQKPGQAPRGLIGGTSNRAPWTPARFSGSLLGGKAALTLSGAQPEDEAEYYCALWYSNLWVFGGGTKLTVL
notes: also called HC9+LC2
B12: huSP34.9.4 Fab-HF (Fab, V domains shown)
VH: EVQLVESGGGLVQPGGSLRLSCAASGFTFSDYAMNWVRQAPGKGLEWVGRTRSKYNSYATYYAASVKGRFTISRDDSKNSLYLQMNSLKTEDTAVYYCVRHGNFGNSYVSWFAVWGQGTLVTVSS
VL: QAVVTQEPSLTVSPGGTVTLTCGSSTGAVTTSHYANWVQQKPGQAPRGLIGGTSKRAPWTPARFSGSLLGGKAALTLSGAQPEDEAEYYCALWYSALWVFGGGTKLTVL
notes: also called HC9+LC4
B13: huSP34.10.5 Fab-HF (Fab, V domains shown)
VH: EVQLVESGGGLVQPGGSLRLSCAASGFTFSDYAMNWVRQAPGKGLEWVGRTRSKYNSYATYYAASVKGRFTISRDDSKNSLYLQMNSLKTEDTAVYYCVRHGNFGHSYVSWFAVWGQGTLVTVSS
VL: QAVVTQEPSLTVSPGGTVTLTCGSSTGAVTTGHYANWVQQKPGQAPRGLIGGTSNRAPWTPARFSGSLLGGKAALTLSGAQPEDEAEYYCALWYSARWVFGGGTKLTVL
notes: also called HC10+LC5

The assay deals with T1, biotinylated CD3 epsilon:delta heterodimer protein (Amsbio AMS.CDD-H52WO) (Homo sapiens (Human), UniProt P07766 23-126; P04234 22-105).
T1 construct: also called CD3 heterodimer
Briefly: BLI (Octet), CD3 on SA sensor, Fab analyte.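 Note: biolayer interferometry with biotinylated CD3 epsilon:delta captured on streptavidin sensors, Fab analyte at several concentrations up to 300 nM, 100 s association then 300 s dissociation.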
Experimental: The CD3 binding kinetics of the purified huSP34 Fabs were determined using OctetRed384 (Pall ForteBio, CA) biolayer interferometry (BLI). […] Streptavidin (SA) coated biosensors tips (Pall ForteBio, CA) were used to capture biotinylated CD3 epsilon: delta heterodimer and typical immobilization levels captured on the SA sensors were 1 nm which approximately translates to 300 ng/ml of captured protein. For kinetic measurements biosensors were first pre-wetted with assay buffer for 10 minutes to remove protective sucrose coating followed by the recommended regeneration conditions for standardization of the biosensor surface for the experiment. In order to load the biosensors with antigen, 300 ng/ml of biotinylated CD3 epsilon: delta heterodimer protein (Amsbio AMS.CDD-H52WO) was immobilized on the SA sensor for 900 seconds. The CD3 loaded biosensors were then blocked with 20 ug/ml biocytin (sigma) for 200 seconds and then dipped into assay buffer containing wells for 200 seconds to remove any non-specific protein or unbound CD3 heterodimer.
CD3 loaded and biocytin blocked biosensors were then transferred into fresh assay buffer for 200 seconds to collect a baseline read. Kinetic measurements for anti-CD3 Fab and bispecific antibody binding were performed by dipping the CD3-coated biosensors into wells containing multiple concentrations of Fab or Ab (0-300 nM) for 100 seconds followed by a 300 second dissociation time by transferring the biosensors into assay buffer containing wells. The CD3 loaded sensors were then regenerated for the next kinetic measurement. Biosensors were generated by removing bound Fabs or Ab from immobilized CD3 on SA biosensors. Regeneration conditions used consisted of 3 cycles of 5 seconds of dipping the biosensors in Regeneration Buffer (10 mM Glycine HCl pH 1.5) followed by Assay Buffer (10 mM sodium phosphate pH 7.4, 140 mM Sodium Chloride, 0.005% Tween20 with 0.2% BSA).
For orientation: Kd means the constant that tells how readily two partners part at equilibrium. A low value points to tighter binding. One may read the koff as the first-order rate constant of dissociation. Read a low koff as a long-lived complex. Broadly, the kon is the second-order rate constant of association. Higher therefore signals fast association. B1 had a Kd of 234 nM, a koff of 0.219 s⁻¹ and a kon of 958000 M⁻¹ s⁻¹.
The corresponding values for B2 are 75 nM, 0.0292 s⁻¹ and 464000 M⁻¹ s⁻¹.
On the same counts, the results for B3 are 268 nM, 0.0746 s⁻¹ and 280000 M⁻¹ s⁻¹.
The corresponding values for B4 are 425 nM, 0.17 s⁻¹ and 403000 M⁻¹ s⁻¹.
Consider B5, for which the binding result was “no binding (tested: 0-300 nM)”.
B6: the binding result was “no binding (tested: 0-300 nM)”.
In the case of B7, the Kd is 417 nM, the koff is 0.0779 s⁻¹ and the kon stood at 187000 M⁻¹ s⁻¹.
B8 returned a dissociation constant (Kd) of 307 nM, an off-rate constant (koff) of 0.0664 s⁻¹ and an association rate constant (kon) of 225000 M⁻¹ s⁻¹.
For B9, the binding result was “no binding (tested: 0-300 nM)”.
Take B10: the dissociation constant Kd worked out at 375 nM, the koff was found to be 0.138 s⁻¹ and the kon is 367000 M⁻¹ s⁻¹.
On the same counts, the results for B11 are 761 nM, 0.145 s⁻¹ and 192000 M⁻¹ s⁻¹.
Molecule B12 yielded an equilibrium dissociation constant (Kd) of 6120 nM, a dissociation rate constant (koff) of 0.25 s⁻¹ and an on-rate constant (kon) of 40900 M⁻¹ s⁻¹.
In turn, B13 had a Kd of 222 nM and a koff of 0.0827 s⁻¹.
